Data on 1 protein can be found in publication PMC5016661 (The Journal of Biological Chemistry, 2016).

A word on the stoichiometry N: it is the number of molecules, sites or subunits per partner or assembly.

The data set concerns the molecule itself. Description: cryo-EM structure; FraC (5 uM) incubated with DOPC LUVs at a protein/lipid ratio of 1:160 for 30 min; vitrified; 1,562 particles; oligomer bound to the vesicles (non-lytic, prepore).

B1: fragaceatoxin C (natural protein)
chain: ADVAGAVIDGAGLGFDVLKTVLEALGNVKRKIAVGIDNESGKTWTAMNTYFRSGTSDIVLPHKVAHGKALLYNGQKNRGPVATGVVGVIAYSMSDGNTLAVLFSVPYDYNWYSNWWNVRVYKGQKRADQRMYEELYYHRSPFRGDNGWHSRGLGYGLKSRGFMNSSGHAILEIHVTKA
notes: also called FraC; WT FraC; source: E. coli BL21 (DE3), purified (ion-exchange and size-exclusion chromatography)
Consider B1, for which the “stoichiometry N” value was determined as 8.
